Results taken from publication PMC547899.

Target: SMC3-474/702 hinge domain (GAL4:SMC3 fusion in pBIND) (UniProt Q9CW03)
Assay: two-hybrid; mammalian two-hybrid (Promega Checkmate) in 293 cells: SMC3-474/702 in pBIND, SMC1-474/663 in pACT, pG5/luc reporter, with Hinderin-V5 expression vector (0.3 or 1 ug/ml) or empty pcDNA3.1; luciferase after 48 h, corrected by Renilla

Sequence of UniProt Q9CW03 (Q9CW03 474-702): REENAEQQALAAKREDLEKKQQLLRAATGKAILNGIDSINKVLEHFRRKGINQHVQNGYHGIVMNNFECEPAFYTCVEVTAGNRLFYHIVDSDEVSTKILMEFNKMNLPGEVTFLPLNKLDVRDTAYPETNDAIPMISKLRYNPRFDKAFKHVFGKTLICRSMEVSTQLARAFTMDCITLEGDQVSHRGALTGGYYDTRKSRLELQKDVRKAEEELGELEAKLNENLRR

SMC1/SMC3 interaction (luciferase activity) in cells overexpressing Hinderin, percent: 34%
Substance: Hinderin-V5 (complete Hinderin coding region with V5 tag) (from UniProt Q86T90 1-577) (natural protein)
